Test results from patent publication US20180064827.

How the values were obtained:
Assay in all cases: cell_activity
[1] = test system: ZFN 63194 (synthetic); conditions: pair with 63195, Hepa1-6, 40 ug/mL
[2] = test system: ZFN 63236 (synthetic); conditions: pair with 63238, Hepa1-6, 40 ug/mL
[3] = test system: ZFN 60287 (synthetic); conditions: pair with 60289, K562
[4] = test system: ZFN 63342 (synthetic); conditions: pair with 63341, Hepa1-6, 40 ug/mL
[5] = test system: ZFN 63238 (synthetic); conditions: pair with 63236, Hepa1-6, 40 ug/mL
[6] = test system: ZFN 63374 (synthetic); conditions: pair with 63375, Hepa1-6, 40 ug/mL
[7] = test system: ZFN 63410 (synthetic); conditions: pair with 63411, Hepa1-6, 40 ug/mL
[8] = test system: ZFN 63375 (synthetic); conditions: pair with 63374, Hepa1-6, 40 ug/mL
[9] = test system: ZFN 63411 (synthetic); conditions: pair with 63410, Hepa1-6, 40 ug/mL
[10] = test system: ZFN 63341 (synthetic); conditions: pair with 63342, Hepa1-6, 40 ug/mL
[11] = test system: ZFN 63195 (synthetic); conditions: pair with 63194, Hepa1-6, 40 ug/mL

Sequence: AAGGACTTGATATGAGAGGGTCCAACTT (double strand) [mouse KLKB1 63194 site]
- activity [1]: 89.8 % indel

Sequence: CCGCTGAGTTCACAGGTTGCCCCATGGA (double strand) [mouse KLKB1 63236 site]
- activity [2]: 92.5 % indel

Sequence: CGGAGCTCACCCTGGCCGAGTTGAGGCA (double strand) [human PCSK9 60287 site]
- activity [3]: 73.1 % indel

Sequence: CTGCTCCTTGCACGAAGGTCACATTCAG (double strand) [mouse KLKB1 63342 site]
- activity [4]: 96.8 % indel

Sequence: GCAGAGTGCTGGAAAATATCCATGGGGC (double strand) [mouse KLKB1 63238 site]
- activity [5]: 92.5 % indel

Sequence: GGGAGCCATCTGTGGATAACCTTAAGGA (double strand) [mouse KLKB1 63374 site]
- activity [6]: 93.7 % indel

Sequence: TCTTTAGGGGAGTGGCCATGGCAGGTCA (double strand) [mouse KLKB1 63410 site]
- activity [7]: 84.7 % indel

Sequence: TGCATGCCATAGGTGATCCTAGTTGGGG (double strand) [mouse KLKB1 63375 site]
- activity [8]: 93.7 % indel

Sequence: TTCACTTGCAGGCTGACCTGCCATGGCC (double strand) [mouse KLKB1 63411 site]
- activity [9]: 84.7 % indel

Sequence: TTGACTTTGAAGGGGAAGAACTGAATGT (double strand) [mouse KLKB1 63341 site]
- activity [10]: 96.8 % indel

Sequence: TTGTCGGTCTTAGAGATATTAAAGTTGG (double strand) [mouse KLKB1 63195 site]
- activity [11]: 89.8 % indel
